Data: US20050013820A1 (REGENTS OF THE UNIVERSITY OF MICHIGAN, published 2005)
Values belong to the binder of their own block, whether it stands above or below them.

What was measured:
[1] = target: T1, cell surface calreticulin on human fibroblastoid M1 cells (human, UniProt P27797 18-417); test: cell-based or functional assay
T1 sequence (looked up): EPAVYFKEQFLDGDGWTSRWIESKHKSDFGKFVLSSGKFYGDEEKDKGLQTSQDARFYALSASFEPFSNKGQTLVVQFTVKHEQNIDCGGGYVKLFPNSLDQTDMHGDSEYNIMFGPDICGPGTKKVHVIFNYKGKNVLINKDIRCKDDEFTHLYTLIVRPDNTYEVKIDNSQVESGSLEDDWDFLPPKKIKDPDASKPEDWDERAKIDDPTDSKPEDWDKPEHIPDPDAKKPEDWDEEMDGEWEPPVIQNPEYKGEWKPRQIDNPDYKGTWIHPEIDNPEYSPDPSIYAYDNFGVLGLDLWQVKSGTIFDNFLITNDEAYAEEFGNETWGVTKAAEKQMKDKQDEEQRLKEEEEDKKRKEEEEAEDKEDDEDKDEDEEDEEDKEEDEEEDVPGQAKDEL

[2] = target: T2, recombinant human calreticulin (human, UniProt P27797 18-417); test: SPR (Biacore 2000), calreticulin immobilized on CM5
T2 construct: Expressed in E. coli as a GST fusion; also called Crt; purified recombinant calreticulin
T2 sequence: T1 sequence (looked up)
Description: Prior to use, biosensor chips CM5 were docked into a Biacore® 2000 and preconditioned in water at 100 μl/min by applying two consecutive 20-μl pulses of 50 mM NaOH, then 10 mM HCl, and finally 0.1% SDS. […] Immobilizations were conducted at 25° C. in HBS-EP (10 mM HEPES, pH7.4, 150 mM NaCl, 1 mM EDTA, 0.005% Surfactant P-20), with a flow of 10 μl/min. The CM5 surface was activated by 7 min injection of 200 mM EDC/50 mM NHS to prepare a high-capacity surface, with manual injection of 100 μg/ml calreticulin until 5500 RU level was approached. Then 100 μl of 1M ethanolamine was used to block remaining activated group.
Calreticulin and peptide binding were performed at 25° C. in binding buffer (10 mM HEPES, pH8.0, 50 mM KCl, 0.5 mM CaCl₂, 1% Triton-X100), with a flow rate of 10 μl/min. […] Binding assays were repeated at least 3 times. Kinetic analysis was performed using Kinetic separate kₐ/kd fitting in BIA evaluation 3.0 software.

inhibition of NO induction by Sepharose bead-bound 65-79*0401 in M1 cells; IC50 [1]: ~35 µM
Binder: DKCLA [pentapeptide DKCLA]

binding result [2]: no binding
Binder: QKRAE (Synthetic pentapeptide) [pentapeptide QKRAE]

inhibition of cAMP-mediated (2CA-induced) DNA repair induction in cells; IC50 [1]: ~0.25 µM
Binder: KDLLEQKRAAVDTY [peptide 65-78*0401]
